{"source": "paper PMC10582360", "about": "“A nanoparticle platform for combined mucosal healing and immunomodulation in inflammatory bowel disease treatment” (Bioactive materials, 2023)", "origin": "cited, not measured here", "system": "dipeptidyl peptidase IV (DPP-IV)", "details": "ref [4]", "from_the_text": "Teduglutide, a GLP-2 analog with prolonged half-life, is commercialized as a daily subcutaneous injection (Gattex®, Revestive®) for its use in short bowel syndrome (SBS) in patients who are dependent on parenteral support. A second long-acting GLP-2 analog, glepaglutide (Zealand Pharma), has just ...", "data": [{"substance": "Glucagon-like peptide 2 [GLP-2]", "values": [{"measurement": "cleavage by DPP-IV", "value": "rapidly cleaved"}]}]}
